This experiment addresses chemokine receptor CXCR3 (human) (UniProt P49682). Nature of the experiment: cell-based or functional assay.
Sequence of UniProt P49682 (P49682 whole entry): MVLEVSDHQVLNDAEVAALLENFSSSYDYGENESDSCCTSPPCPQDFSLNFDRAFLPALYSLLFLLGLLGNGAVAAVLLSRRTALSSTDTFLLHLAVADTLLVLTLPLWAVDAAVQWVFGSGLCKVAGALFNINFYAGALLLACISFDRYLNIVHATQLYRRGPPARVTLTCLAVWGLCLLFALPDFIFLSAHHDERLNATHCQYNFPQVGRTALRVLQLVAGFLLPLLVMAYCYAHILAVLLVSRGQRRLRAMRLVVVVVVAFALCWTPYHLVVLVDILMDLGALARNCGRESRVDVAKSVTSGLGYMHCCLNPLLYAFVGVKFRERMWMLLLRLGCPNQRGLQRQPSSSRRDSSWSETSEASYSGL

The molecule “CXCL10 (from UniProt P02778 22-98) (ligand)” gave a chemokine concentration at maximum cell migration of CD8+ TSCM of 100 ng/mL and a chemotactic index, in-vitro transwell migration of human T cells of 2.

B1: CXCL9 (ligand, UniProt Q07325 23-125, looked up)
chain: TPVVRKGRCSCISTNQGTIHLQSLKDLKQFAPSPSCEKIEIIATLKNGVQTCLNPDSADVKELIKKWEKQVSQKKKQKNGKKHQKKKVLKVRKSQRSRQKKTT
B1 gave a chemokine concentration at maximum cell migration of CD8+ TSCM of 100 ng/mL and a chemotactic index, in-vitro transwell migration of human T cells of 2.

B2: CXCL11 (ligand, UniProt O14625 22-94, looked up)
chain: FPMFKRGRCLCIGPGVKAVKVADIEKASIMYPSNNCDKIEVIITLKENKGQRCLNPKSKQARLIIKKVERKNF
B2 registered a chemokine concentration at maximum cell migration of CD8+ TSCM of 100 ng/mL; a chemotactic index, in-vitro transwell migration of human T cells of 2; a fold enrichment of CXCR3+ cells after 21 days stimulation with CMV epitopes and CXCL11 of 10000 fold.

Source of the values: patent US20240066061A1.
